Test results: publication doi:10.1101/2023.02.25.529910 (bioRxiv, 2023)
Substitutions are numbered along the chain they refer to. Names may count otherwise.

B1: gpV-AA (full-length bacteriophage P2 gpV, H197A/H199A) (natural protein)
chain: MNTLANIQELARALRNMIRTGIIVETDLNAGRCRVQTGGMCTDWLQWLTHRAGRSRTWWAPSVGEQVLILAVGGELDTAFVLPGIYSGDNPSPSVSADALHIRFPDGAVIEYEPETSALTVSGIKTASVTASGSVTATVPVVMVKASTRVTLDTPEVVCTNRLITGTLEVQKGGTMRGNIEHTGGELSSNGKVLHTAKAPGDSGGTTGSPL
B2: gpV-FF (full-length bacteriophage P2 gpV, H197F/H199F) (natural protein)
chain: B1 chain with A197F, A199F
B3: gpV-DEL (bacteriophage P2 gpV with the Apex domain deleted, ends at Thr196 plus an exogenous Leu197) (domain or fragment)
chain: MNTLANIQELARALRNMIRTGIIVETDLNAGRCRVQTGGMCTDWLQWLTHRAGRSRTWWAPSVGEQVLILAVGGELDTAFVLPGIYSGDNPSPSVSADALHIRFPDGAVIEYEPETSALTVSGIKTASVTASGSVTATVPVVMVKASTRVTLDTPEVVCTNRLITGTLEVQKGGTMRGNIEHTGGELSSNGKVLHTL
B4: gpVdL-AA (bacteriophage P2 gpV residues 97-211, H197A/H199A) (domain or fragment)
chain: ADALHIRFPDGAVIEYEPETSALTVSGIKTASVTASGSVTATVPVVMVKASTRVTLDTPEVVCTNRLITGTLEVQKGGTMRGNIEHTGGELSSNGKVLHTAKAPGDSGGTTGSPL
B5: gpVdL-FF (bacteriophage P2 gpV residues 97-211, H197F/H199F) (domain or fragment)
chain: B4 chain with A101F, A103F
B6: gpVdL-DEL (bacteriophage P2 gpV residues 97-196 plus an exogenous Leu197, Apex domain deleted) (domain or fragment)
chain: ADALHIRFPDGAVIEYEPETSALTVSGIKTASVTASGSVTATVPVVMVKASTRVTLDTPEVVCTNRLITGTLEVQKGGTMRGNIEHTGGELSSNGKVLHTL

Legend:
SEC = molecular target: the molecule itself; test: SEC
crystal structure = molecular target: the molecule itself; test: crystal structure

Row | Protein | binding result (SEC) | stoichiometry N (crystal structure) | other results
1 | B1 | binds | – | –
2 | B2 | binds | – | –
3 | B3 | binds | – | –
4 | B4 | – | 3 | –
5 | B5 | – | 3 | –
6 | B6 | – | – | binding result (crystal structure): binds
